Measured values: PMC8694150, “Characterization of NucPNP and NucV involved in the early steps of nucleocidin biosynthesis in Streptomyces calvus” (RSC Advances, 2021)
Blank lines part the entries; values can stand above or below the molecule they belong to.

How the values were obtained:
NucV = target: T1, NucV (Streptomyces calvus, UniProt A0A142C6V8); assay: HPLC of AMP formation, Michaelis-Menten fit; format: biochemical; settings: 10 mM MgCl2, 50 mM Tris-HCl, 150 mM NaCl, pH 7.5, room temperature, apparent
T1 construct: gene apt; N-terminal 6-His tag kept; expressed in E. coli BL21(DE3)
From the text: HPLC of AMP formation, Michaelis-Menten fit on NucV

ScAPRT = target: T2, ScAPRT (Streptomyces calvus, UniProt A0A514K045); assay: HPLC of AMP formation, Michaelis-Menten fit; format: biochemical; settings: 10 mM MgCl2, 50 mM Tris-HCl, 150 mM NaCl, pH 7.5, room temperature, apparent
T2 construct: gene apt; N-terminal 6-His tag kept; expressed in E. coli BL21(DE3); housekeeping APRT, not NucV
From the text: HPLC of AMP formation, Michaelis-Menten fit on ScAPRT

[1] = test system: T3, Nc1ncnc2c1ncn2[C@@H]1O[C@H](CO)[C@@H](O)[C@H]1O; assay: purified protein; format: biochemical, Streptomyces calvus; settings: 10 mM phosphate, 50 mM Tris-HCl, 150 mM NaCl, pH 7.5, room temperature, apparent
T3 construct: expressed in E. coli SHuffle T7 Express lysY; amylose then Ni-NTA
From the text: (§1) HPLC of adenine formation, Michaelis-Menten fit on MBP-NucPNP

[2] = test system: T4, CSC[C@H]1O[C@@H](n2cnc3c(N)ncnc32)[C@H](O)[C@@H]1O; assay: purified protein; format: biochemical, Streptomyces calvus; settings: 10 mM phosphate, 50 mM Tris-HCl, 150 mM NaCl, pH 7.5, room temperature, apparent
T4 construct: expressed in E. coli SHuffle T7 Express lysY; amylose then Ni-NTA
From the text: as §1

purified protein = substrate: Nc1ncnc2nc[nH]c12; assay: purified protein; settings: 500 μM PRPP, 10 mM MgCl2, 50 mM Tris-HCl, 150 mM NaCl, pH 7.5, room temperature, apparent
[3] = substrate: O=P(O)(O)OC[C@H]1O[C@H](OP(=O)(O)OP(=O)(O)O)[C@H](O)[C@@H]1O; assay: HPLC of AMP formation, Michaelis-Menten fit; format: biochemical, Escherichia coli; settings: 500 μM adenine, 10 mM MgCl2, 50 mM Tris-HCl, 150 mM NaCl, pH 7.5, room temperature, apparent

T1 sequence (A0A142C6V8 entry or part of it): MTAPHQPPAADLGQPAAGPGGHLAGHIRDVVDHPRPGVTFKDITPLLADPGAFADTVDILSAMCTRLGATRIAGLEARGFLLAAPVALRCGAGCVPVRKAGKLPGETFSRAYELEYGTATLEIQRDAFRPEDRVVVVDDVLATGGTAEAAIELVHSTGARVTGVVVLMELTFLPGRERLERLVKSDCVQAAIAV
T2 sequence (A0A514K045 entry or part of it): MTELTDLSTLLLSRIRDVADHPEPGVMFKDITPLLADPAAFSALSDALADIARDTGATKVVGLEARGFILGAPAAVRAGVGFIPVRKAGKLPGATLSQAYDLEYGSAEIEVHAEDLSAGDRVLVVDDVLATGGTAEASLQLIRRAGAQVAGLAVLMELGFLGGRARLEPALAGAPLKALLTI

Km (NucV; 500 μM adenine): 21.4 ± 3 µM
Km (ScAPRT; 500 μM adenine): 9.8 ± 2 µM
Molecule: O=P(O)(O)OC[C@H]1O[C@H](OP(=O)(O)OP(=O)(O)O)[C@H](O)[C@@H]1O [compound 5, 5-phospho-α-D-ribose-1-diphosphate]

Km (NucV; 500 μM PRPP): 6.8 ± 1.4 µM
Km (ScAPRT; 500 μM PRPP): 2.8 ± 0.6 µM
Molecule: Nc1ncnc2nc[nH]c12 [compound 3, adenine]

Molecule: MBP-NucPNP (Streptomyces calvus)
Km [1]: 90.3 ± 8.2 µM
kcat [1]: 0.49 ± 0.02 s⁻¹
kcat/Km [1]: 5500 M⁻¹ s⁻¹
Km [2]: 43.5 ± 4.1 µM
kcat [2]: 0.15 ± 0.01 s⁻¹
kcat/Km [2]: 3400 M⁻¹ s⁻¹

B1: EcAPRT (Escherichia coli K-12) (protein)
chain: MTATAQQLEYLKNSIKSIQDYPKPGILFRDVTSLLEDPKAYALSIDLLVERYKNAGITKVVGTEARGFLFGAPVALGLGVGFVPVRKPGKLPRETISETYDLEYGTDQLEIHVDAIKPGDKVLVVDDLLATGGTIEATVKLIRRLGGEVADAAFIINLFDLGGEQRLEKQGITSYSLVPFPGH
notes: N-terminal 6-His tag kept; expressed in E. coli BL21(DE3)
Km (purified protein): 9.6 ± 2.5 µM
kcat (purified protein): 27.3 ± 1.9 s⁻¹
Km [3]: 46.4 ± 9.0 µM
kcat [3]: 15.9 ± 1.3 s⁻¹
